These results are taken from the DeepSol protein solubility set.

A short description of the data set: soluble on expression in E. coli; label from the status in PepcDB or PDB records.
As for “MTICSVNNVTKSFGGNIIFENISLEIKNGERVGLVGRNGSGKTTIFQLLTGMESLDAGAIHMKKGTRIGHVAQIPKFDESMTVYEVLSSAFKIEKELEREMRTLEKDMAEEQESSVLQKLMERYGIIQEKFAFLGGYEIEANIMKVANGLQVTELFPRSFLELSGGEQTKVSLAYMLLQKPDLLLLDEPTNHLDLFAVEWLEQFLKEYNGTVMVISHDRYFLDEVVTKIFDLEDGEIHVYHTNYSRFVEEKEERLLQEFQAYQEQQKKIKKMKEAIKRLREWANQANPPNEGLHKRARSMERALERMQKLKKPILERKQIGLQFEGQDRSGKDVVVIKEVSKGFADHPLFNEVNLHVRFQERAAIVGRNGTGKTTLLKLLLEEIEPDAGEIRIGSSVKIGYLSQHAYGNMKSDVLEAFREYVAVTEGEARHILAKFLFYGPAVFKKVTQLSGGEKMRLRLAQLMYQDINFLILDEPTNHLDIESREVLEEALEQYNGTILAVSHDRYFLNKLFEKTYWIDEHKLFEFAGNYAWARQKWEERLETQVIKQQRQGRKSIETAPVKKKEARNIEEIETELMHVEEDIYTLECTMEHVVDIKRLEQLYEEKTKKELLRAELYNELENIVE”, the “soluble on expression in E. coli” value was “not soluble”.
The value for “MKTFEVMIQTDSKGYLDAKFGGNAPKAFLNSNGLPTYSPKISWQKVEGAQSYALELIDHDAQKVCGMPFVHWVVGNIAHNVLEENASMMDKRIVQGVNSLTQGFIRSPLNESEKQRSNLNNSVYIGPMPPNGDHHYLIQVYALDIPKLALKAPFFLGDLHDKMRNHIIAIGRKEFLYKQFVRK” was “soluble”; that for “DGDQCETSPCQNQGKCKDGLGEYTCTCLEGFEGKNCELFTRKLCSLDNGDCDQFCHEEQNSVVCSCARGYTLADNGKACIPTGPYPCGKQTLERRKRSVAQATSSSGEAPDSITWKPYDAADLDPTENPFDLLDFNQTQPERGDNNLTR” was “soluble”.
Take “MRWAPVTYTVGSSSVGSFPAVQWRGINTPTQIVFSLSSSEVRSYRLRIFVPLAQVSARPQIAVNARWNGPVPAAPNQPKTRGITRGTTRGNNTLCEVDIPATALQAGSNRIAISLASGSPDNGFLSPAIVYDSVQLVAPLEHHHHHH”: the “soluble on expression in E. coli” value is recorded as “not soluble”.
In the case of “MTVDFYSFAKGIVKGVLTPFYRIQTIGIEQFPKEGGVLLCANHISNLDPPVIGITAPRPIRFMAKEELFRAPVVKTLVKSLHAFPVKRGMNDRQALRTGLEVLKQGEVLGIFPEGTRSKDGRLKKALPGVGFFALRTDAAVVPCAIVGPYRPFVPLKVVYGAPVDMAPLRARKASPEEAADYIMDHIRRLLEEHQRA”, the “soluble on expression in E. coli” value is “not soluble”.
“MYKATVIIKLKKGVLNPEGRTIQRALNFLGFNNVKEVQTYKMIDIIMEGENEEKVKEEVEEMCKKLLANPVIHDYEIKVEKIE”: the “soluble on expression in E. coli” value is listed as “soluble”.
For “MGNYMTYIVGLTGGIGSGKTTIANLFTDLGVPLVDADVVAREVVAKDSPLLSKIVEHFGAQILTEQGELNRAALRERVFNHDEDKLWLNNLLHPAIRERMKQKLAEQTAPYTLFVVPLLIENKLTALCDRILVVDVSPQTQLARSAQRDNNNFEQIQRIMNSQVSQQERLKWADDVINNDAELAQNLPHLQQKVLELHQFYLQQAENKNALEHHHHHH”, the “soluble on expression in E. coli” value is reported as “soluble”.
In the case of “MSGIAAGRLAEERKHWRKDHPFGFIAKPVKNADGTLNLFNWECAIPGRKDTIWEGGLYRIRMLFKDDFPSTPPKCKFEPPLFHPNVYPSGTVCLSLLDENKDWKPSISIKQLLIGIQDLLNHPNIEDPAQAEAYQIYCQNRAEYEKRVKKEAVKYAAELVQKQMLE”, the “soluble on expression in E. coli” value was “not soluble”.
The value for “MDPLDRLIQLANLQGRLDQRCQLQGSWALEHPQAVPGEATFHIVMAGTCYCEFLDGGRLDLHPGDLILLPRGTPHLLRSDSPAQPCEPTVEHRGSIPLYQLNGPGEALDMLCGSYRYHAGASLFGALPERLLVHMDESTQQPLRALIGLMREEAESTRSGARSIIDALATALFALALRAYLDRQPLGDGLFGLLGDARLGRALRAMLERPEHAWTLEQLAQQAAMSRASFVRAFSALGGTSPWNLLTRIRMEKARGLLRQTQKSLLDIAAETGYQSEAAFSRNFRQAFGESPGRFRRQADSAR” was “not soluble”; that for “MSAEFNQLVAQFEQFQAKLHRVDQQFADLGQMQRELTELEVVATSADREVTVVAGPSGTIKDIRLTDQAMHRPPQALATALMATLRQAVAESARRQAGIVENALGDEMGLTEQVLETQAQLFGVTPQELRAMTEQAPGQPPAAPPPAPPAAGPGPQTPLAPPARPTPPRRPAPAEEADDFSQRGFLRDDDQQPRRPQADPGQKRDDRFLNLYDDEGR” was “not soluble”; that for “MERFDAVIIGAGAAGMFCAAQAGQAGSRVLLIDNGKKPGRKILMSGGGRCNFTNLYVEPAAYLSQNPHFCKSALARYTQWDFIDLVGRYGIAWHEKTLGQLFCDDSAQRIVDMLVAECDKGGVTMRLRSEVLSVERDESGFVLALNGETVTTQKLVIASGGLSMPGLGASPFGYKIAEQFGLKVLPTRAGLVPFTLHKPLLEQLQTLSGVSVPCVITARNGTVFRENLLFTHRGLSGPAVLQISSYWQPGELVSINLLPDLSLEDVLNEQRNAHPNQSLKNTLAMHLPKRLVECLQQLGLIPDVSLRQLNVRDQQTLVDTLTAWQVQPNGTEGYRTAEVTLGGVDTNELSSRTMEARRVPGLYFIGEVMDVTGWLGGYNFQWAWSSAWACAQDLIALKIN” was “soluble”.
The entry for “AHHHHHHGSTKVYIENYGCARNRADGEIMAGLLLSSGYEIVEGEENADIVVVNSCAVKDPTEVKIARRIRELLDRGKKVIVTGCLPHVNPDAIDERVSAVLGVKSIDRIVQAVEYALRGEKLISVPDWRKRNLDKLDFPRLSPRGVHFILPIAEGCLNGCTYCATRSARGVLKSYSPEKIVEWVKWAIRQGYKEIWLSAEDTGCYGFDIGTNLAKLLDEITAIEGEFRIRVGMMNPNHVLKFLDELIEAYKDEKVYKFLHLPVQSGDNEILRRMGRTYTVEEFEEIVNAFRREFPDLNLHTDIIVGFPGESEEAFQRSLELIKRIKPDKVNVSRYSPRPGTIAAKWKQLPGWVVKERSRIMHRVRLQISYEINQRYVGRKVDILVHGEGKKGNVDAVTMNYKHIIIPRGEKGEFARAKVNGATSTYLLGEIVD” is “not soluble”; for “MGSDKIHHHHHHMAQVDLLNVKGEKVGTLEISDFVFNIDPNYDVMWRYVDMQLSNRRAGTASTKTRGEVSGGGRKPWPQKHTGRARHGSIRSPIWRHGGVVHGPKPRDWSKKLNKKMKKLALRSALSVKYRENKLLVLDDLKLERPKTKSLKEILQNLQLSDKKTLIVLPWKEEGYMNVKLSGRNLPDVKVIIADNPNNSKNGEKAVRIDGLNVFDMLKYDYLVLTRDMVSKIEEVLGNEAGKALTA” it is “not soluble”; for “MGITTNLISEVSKFYYALKYHAKFMSLGELGCYASHYSLWEKCIELNEAICILEDDITLKEDFKEGLDFLEKHIQELGYIRLMHLLYDASVKSEPLSHKNHEIQERVGIIKAYSEGVGTQGYVITPKIAKVFLKCSRKWVVPVDTIMDATFIHGVKNLVLQPFVIADDEQISTIARKEEPYSPKIALMRELHFKYLKYWQFVLEHHHHHH” it is “soluble”.
The value for “RFNVFDFRGATLIADYGHNPDAIQALVRAIDTMPARRRSVVISGAGDRRDEDLRQQTEILGGAFDDVILYQDQCQRGRADGEVVALLRQGLQQAPRTRHIDEIQGEFVAIDAALERLAPGDLCLILVDQ” was “not soluble”; that for “TPNKEDYLKCLYELGTRHNKITNKEIAQLMQVSPPAVTEMMKKLLAEELLIKDKKAGYLLTDLGLKLVSDLYRKHRLIEVFLVHHLGYTTEEIHEEAEVLEHTVSDHFVERLDQLLDYPKACPHGGTIPAKGELLVEKHKLTLEEAKEKGDYILARVHDNFDLLTYLERNGLQVGKTIRFLGYDDFSHLYSLEVDGQEIQLAQPIAQQIYVEKI” was “soluble”.
Take “MAHHHHHHMIERTDVVTGTETQEGSTVPQEARQFLQIIATMQSESEERARIIGELRYRKLLVEEERDKNFMEREAVVAKLADARAQLLQLDVEHRELQKRQRSSESEILENSRQSQRCRTLLSTCRGDLTVHPMVPNSASELAAEATAAGTSSAAHNAYTEEAKWLKHLFITYGQLYNGTDFLQELRVSMKNLYVEVSKETHNTVQRNLSDWEATCLQSLPHLTADERTLLHFQLMLHPFV”: the “soluble on expression in E. coli” value is “not soluble”.
As to “SNAMKIIFSASPANRAAAYALRQAVFVEERGISADVEFDVKDTDQCEYAVLYLQPDLPITTLRLEPQADHVMRFGRVCTRKAYRGHGWGRQLLTAAEEWATQRGFTHGEIHGELTAQRFYELCGYRVTAGPYDEDGAPVVIMHKQLL”, the “soluble on expression in E. coli” value is reported as “soluble”.
Turning to “MRINEMALHEKPRERLITYGAKSLSNVELLAILLNTGRKGFSSIDIANELLKQQSTIRDLKKLSINDLLKIKGIGLYKAVILQAAFELGERINSTSTFDKVQITHPSDVASLMMSTMKDLEQEHFVVLLLNSKNIVTKQAWVYKGTLNSSIIHPREVFNIAIRESSNSIIVVHNHPSGDVTPSKEDITTTYRLKECGDILGINLLDHIIIGDNKFTSLVEAGYFDK”, the “soluble on expression in E. coli” value is recorded as “not soluble”.
The value for “MAANFWNSSHYKQLLDPEEVDVVHDLDKERGISIDDFKLIKFHMSNHIMKLAQHIKVRQRVVATAITYMRRVYIRKSMVEFEPRLVALTCLYLASKAEESIVQARNLVFYIKRLYPDEYNKYELKDILGMEMKVLEALDYYLVVFHPYRSLSEFLQDAALNDVNMNQITWGIVNDTYKMDLILVHPPYRIALACIYIASVHREKDITAWFEDLHEDMNLVKNIAMEILDFYENYRTITEEKVNSAFSKLALKL” was “soluble”; that for “MTVIQNIPNSLCKGLNTFSKNYLQNCKRCLTFFYELCGIICKKIEIMKGYERATKEEINDRLRIEENCHAQVERIIYIRHLCNLNLEEAADVTNLSISTLSRYENEVTKCSVQSLITIYYHYQKYLYEQHIPFDKNLFLIDMNSFHN” was “not soluble”; that for “MSLKIAQATARVEAFALVRPYTIALRHVGTVENVIVQLQTASGLIGLGAASAAADVTGESDQACREALLGGAIGWLVGEDIRELPKLCRRLGERMAGRPAARAAVDIALHDLLAQHLGVPLVAMLGRVHTGLPTSITIGIKPLDETLAEAREYLGRGFRILKVKTGLDLEGDIERLARLREQVGDAVHLRVDPNQGYSIAEVEQFVRRTAHLFLEFLEQPIPAGDIAALRALPPDIRLRIAADESLLDERDALKLLTPSPACGIFNIKLMKCGGIRPALAIAGLAEIAGIELMWGCMDESIVSITAALHAALACPATRYLDLDGSLDLARDVVTGGFVLKDGYLSTREAPGLGVQLLSEGHHHHHH” was “not soluble”.
The value for “DIHQEMDREELELEEVDLYRMNSQDKLGLTVCYRTDDEDDIGIYISEIDPNSIAAKDGRIREGDRIIQINGIEVQNREEAVALLTSEENKNFSLLIARPELQLDEGWMDDD” was “soluble”.
The entry for “MGSDKIHHHHHHMNVLEQFYQLGWTLDSAGGASGEAYMAEQDGQKLFLKRNSNPFIAALSAEGIVPKLVWTKRIETGEVVTAQHWKNGRELNEDEMNQTRVAELLHKIHGSRPLLTMLKRMEMEPITPDIMLNKINASLSREVLTHHVVRRALTYLEDHIPNLDARFFTVVHGDVNHNNWLLSDRDELYLVDWEGAMIADPAIDIGMLLYNYVPQNKWSQWFKTYGVEESVNLNKRMKWYTVIQAIGLIQWYEEQKRYRDMNTWLKFLNEVMNSNLFI” is “not soluble”.
